Assay results from US10052365B2, “Methods and products relating to GSK3β regulation” (University of Vermont and State Agricultural College, priority 2008, dated 2018).
Entries after “also recorded” stand apart in the source; their conditions may differ. Where no end group is shown, it is not given here. [ ]: non-standard residue; d: D form. pT = C[C@@H](OP(=O)(O)O)[C@H](N)C(=O)O; pS = N[C@@H](COP(=O)(O)O)C(=O)O

Tests used:
[1] = test system: phospho-Ser^9 GSK3β in 293T cells; experiment: Western blot of phospho-Ser^9 GSK3β in treated 293T cells; type: cell-based; conditions: 40 minutes, SB203580 5 μM, Wortmanin 1 μM, FIG. 7
Method: (§1) Thymocytes were isolated from wildtype, Rag^−/− or MKK6(Glu) transgenic mice.
(§2) Whole cell extracts were prepared in Triton lysis buffer (TLB) as previously described (25, 26). Nuclear extracts were made from cells as previously described (27). Immunoprecipitations and Western blotting was performed as described in (8). Anti-Akt, anti-p38 MAPK, anti-Lef, anti-c-Myc and anti-Histone (Santa Cruz Biotechnology, Santa Cruz, Calif.), anti-GSK3β, anti-β-catenin, anti-phospho-p38 MAPK and antiphospho-S^9 (Cell Signaling, Beverly, Mass.) and Anti-Flag (Stratagene, La Jolla, Calif.) were used for Western blot analysis. […] Anti-Akt, anti-p38 MAPK and Anti-GSK3β were used for immunoprecipitations. Anti-rabbit-HRP, anti-mouse-HRP (Jackson ImmunoResearch Laboratories, West Grove, Pa.) and anti-goat-HRP (Santa Cruz Biotechnology, Santa Cruz, Calif.) were used as secondary antibodies.

GST-GSK3β [2] = molecular target: T1, GST-GSK3β (Homo sapiens, UniProt P49841); experiment: In vitro GSK3β kinase assay with inhibitory peptides (GSM substrate); type: biochemical; conditions: for GSK3β activity in the presence of peptide: in vitro kinase reaction, FIG. 3G
T1 construct: made in house
T1 sequence (P49841 whole entry): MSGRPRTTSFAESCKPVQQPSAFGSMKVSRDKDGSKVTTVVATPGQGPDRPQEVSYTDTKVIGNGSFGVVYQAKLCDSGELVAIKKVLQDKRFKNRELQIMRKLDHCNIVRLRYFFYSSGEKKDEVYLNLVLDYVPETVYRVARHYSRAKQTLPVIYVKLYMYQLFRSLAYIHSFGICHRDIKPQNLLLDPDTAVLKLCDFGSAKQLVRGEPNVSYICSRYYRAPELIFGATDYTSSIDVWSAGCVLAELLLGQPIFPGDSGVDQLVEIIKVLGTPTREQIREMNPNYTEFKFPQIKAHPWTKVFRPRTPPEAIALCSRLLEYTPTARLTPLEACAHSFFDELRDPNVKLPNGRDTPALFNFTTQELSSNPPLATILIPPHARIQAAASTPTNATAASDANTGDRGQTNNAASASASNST
Method: (§3) Active GST-GSK3β and GST-GSK3β-T^43A and GST-GSK3β-T^390 mutants were expressed and purified as described in (29). The specific activity of the wildtype and the mutants was determined using the GSM substrate peptide (Upstate, Lake Placid, N.Y.) and were as follows: GST-GSK3β (91 μmol/μg×min) and GST-GSK3β-T^43A (53 μmol/μg×min) and GST-GSK3β-T^390A (65 μmol/μg×min). In vitro GSK3β kinase assays were performed by incubating purified active wildtype GST-GSK3β or GST-GSK3β-T^43A and GST-GSK3β-T^390A mutants (400 ng) at 30° C. for 10 minutes in kinase buffer supplemented with 1 mM ATP containing [γ-^32P] ATP and GSM substrate peptide (62.5 μM) (Upstate, Lake Placid, N.Y.). Reactions were terminated by spotting onto P81 filters. Filters were washed extensively and counted in a scintillation counter. To examine the effect of p38 MAPK and Akt on GSK3β activity, purified active GSK3β or mutants were preincubated for 15 minutes at 30° C. with 500 ng recombinant active p38 MAPK or active Akt (Cell Signaling, Beverly, Mass.) prior to performing the GSK3β activity assay as described above.
For peptide inhibition assays, Phospho-S^9 (GRPRTTS(PO3H2)FAE) (SEQ ID NO:95) (20). Phospho-[…] (RIQAAAST(PO3H2)PTN) (SEQ ID NO:7) and non-phospho-T^390 (RIQAAASTPTN) (SEQ ID NO:96) peptides were synthesized and purified by UVM protein Core Facility. In vitro kinase assays were performed with purified GST-GSK3β (400 ng) in Kinase buffer supplement with 1 mM ATP containing [γ-^32P] ATP and the indicated concentrations of GSM and inhibitory peptide.

GSK3α = GSK3α (Homo sapiens, UniProt P49840); experiment: In vitro GSK3α kinase assay after preincubation with activated p38 MAPK; type: biochemical; conditions: pre-incubated 15 min; FIG. 12
GSK3α, sequence (P49840 whole entry, species assumed): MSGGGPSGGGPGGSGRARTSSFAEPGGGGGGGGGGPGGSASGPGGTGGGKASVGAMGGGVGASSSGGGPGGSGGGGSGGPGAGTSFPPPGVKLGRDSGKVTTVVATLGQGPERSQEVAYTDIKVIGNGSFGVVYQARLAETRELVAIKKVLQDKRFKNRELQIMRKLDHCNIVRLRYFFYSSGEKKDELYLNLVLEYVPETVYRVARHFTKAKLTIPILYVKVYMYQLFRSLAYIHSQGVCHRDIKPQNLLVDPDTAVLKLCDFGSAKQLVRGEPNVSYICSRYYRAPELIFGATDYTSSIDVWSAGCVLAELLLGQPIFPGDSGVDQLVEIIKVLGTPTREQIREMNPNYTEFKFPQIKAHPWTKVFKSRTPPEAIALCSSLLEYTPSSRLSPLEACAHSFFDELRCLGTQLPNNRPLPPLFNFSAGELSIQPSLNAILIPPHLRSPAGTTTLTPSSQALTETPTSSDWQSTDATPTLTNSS
Method: Recombinant kinase-active GSK3α was pre-incubated in the reaction buffer alone (GSKα), with activated p38 MAPK or activated Akt (15 min). In vitro GSK3α kinase assays were then performed using GSM as the substrate. Error bars represent SD (n=3).

wild-type GSK3β = molecular target: T2, wild-type GSK3β (Homo sapiens, UniProt P49841); experiment: GSK3β activity after preincubation with active p38 MAPK or Akt; type: biochemical; conditions: preincubated 15 minutes at 30° C. with 500 ng kinase; FIG. 3D
T2 construct: made in house
T2 sequence (P49841 whole entry): as the sequence (P49841 whole entry) above
Method: as §3

GSK3β-T^43A mutant = molecular target: T3, GSK3β-T^43A mutant (Homo sapiens, UniProt P49841, T43A); experiment: as above; type: biochemical; conditions: preincubated 15 minutes at 30° C. with 500 ng kinase; FIG. 3E
T3 construct: made in house
T3 sequence (P49841 whole entry T43A): as the sequence (P49841 whole entry) above, with T43A counted along it
Method: as §3

GSK3β-T^390A mutant = molecular target: T4, GSK3β-T^390A mutant (Homo sapiens, UniProt P49841, T390A); experiment: as above; type: biochemical; conditions: preincubated 15 minutes at 30° C. with 500 ng kinase; FIG. 3F
T4 construct: made in house
T4 sequence (P49841 whole entry T390A): as the sequence (P49841 whole entry) above, with T390A counted along it
Method: as §3

GSM substrate peptide = experiment: Specific activity of active GST-GSK3β wildtype and mutants; type: biochemical
Method: as §3

GST-GSK3β [3] = molecular target: T1, GST-GSK3β; conditions: references 20, 21; cited from earlier work
[4] = test system: phosphorylation of GSK3β at Ser^389; experiment: Western blot of phospho-Ser^389 in mouse GSK3β-transfected 293T cells; type: cell-based; conditions: FIG. 4D
Method: (§4) Thymocytes were isolated from wildtype, Rag^−/− or MKK6(Glu) transgenic mice. 293T cells were transiently transfected with the indicated expression constructs using calcium phosphate. When specified, 293T cells were treated with SB203580 (5 μM) and Wortmanin (1 μM) (Calbiochem, San Diego, Calif.). Wildtype, GSK3α^−/− and GSK3β^−/− ES cells (17), as well as WT and MKK3^−/−MKK6^−/− MEF (22) have been previously described, and were also treated with SB203580 as described above for the indicated periods of time. For in vivo inhibition of p38 MAPK, wildtype mice were intraperitoneally (i.p.) injected with SB203580 or vehicle alone, and after 18 hours brain and thymocytes were harvested to prepare whole cell lysates.
(§5) Whole cell extracts were prepared in Triton lysis buffer (TLB) as previously described (25, 26). Nuclear extracts were made from cells as previously described (27). Immunoprecipitations and Western blotting was performed as described in (8). Anti-Akt, anti-p38 MAPK, anti-Lef, anti-c-Myc and anti-Histone (Santa Cruz Biotechnology, Santa Cruz, Calif.), anti-GSK3β, anti-β-catenin, anti-phospho-p38 MAPK and antiphospho-S^9 (Cell Signaling, Beverly, Mass.) and Anti-Flag (Stratagene, La Jolla, Calif.) were used for Western blot analysis. The phospho-S^389 GSK3β antibody was made by Proteintech, Chicago, Ill., using N-C-ARIQAAA(phos-S)PPANATA (SEQ ID NO:87) for immunization. […]

p38 MAPK = conditions: SB203580 2.5 μM
Method: The reactions were terminated after 30 min at 30° C. by addition of SDS-PAGE sample buffer, separated by SDS-PAGE and transferred to nitrocellulose. Protein was visualized by staining with PonceauS and incorporated ^32P was visualized by autoradiography. In specific experiments, whole cell extracts were first depleted of Akt prior to p38 MAPK immunoprecipitation by being pre-incubated with anti-Akt antibody prebound to protein A-Sepharose followed by one incubation with protein A-sepharose alone.

β-catenin = experiment: Western blot of β-catenin in 293T cells transfected with GSK3β, p38 and MKK6; type: cell-based; conditions: FIG. 4D
Method: as §4, §5

[5] = test system: phosphorylation of endogenous GSK3β at Ser^389; experiment: Western blot of phospho-Ser^389 of endogenous GSK3β in MEFs and ES cells; type: cell-based, mouse; conditions: FIG. 4E-F
Method: as §4, §5

phospho-Ser^389 GSK3β = experiment: In vivo inhibition of p38 MAPK, phospho-Ser^389 GSK3β in thymocytes and brain; design: species or system mouse; conditions: wildtype mice i.p., 18 hours, FIG. 4L
Method: as §1, §2

Molecule: COC[C@H]1OC(=O)c2coc3c2[C@@]1(C)C1=C(C3=O)[C@@H]2CCC(=O)[C@@]2(C)C[C@H]1OC(C)=O [Wortmanin]
- phosphorylation of Ser^9 of GSK3β [1]: impaired

Molecule: RIQAAASTPTN [unphosphorylated-Thr^390 peptide, reference compound]
- GSK3β activity in the presence of peptide (GST-GSK3β [2]): did not

Molecule: p38 MAPK: recombinant active p38 MAPK (Cell Signaling)
- effect on GSK3α activity (GSK3α): did not affect; also recorded: does not inhibit
- effect on GSK3β activity (wild-type GSK3β): inhibited
- effect on GSK3β activity (GSK3β-T^43A mutant): inhibited
- effect on GSK3β activity (GSK3β-T^390A mutant): not

Molecule: GST-GSK3β-T^390A: purified active GST-GSK3β T^390A mutant
- specific activity (GSM substrate peptide): 65 µmol/µg/min

Molecule: GRPRTTS(PO3H2)FAE (GRPRTT[pS]FAE) [phospho-Ser^9 peptide]
- inhibition of GSK3β in vitro (GST-GSK3β [3]): specifically inhibits GSK3β in vitro

Molecule: RIQAAAST(PO3H2)PTN (RIQAAAS[pT]PTN) [phospho-Thr^390 peptide]
- GSK3β activity in the presence of peptide (GST-GSK3β [2]): inhibited GSK3β activity
- inhibition of GSK3β activity compared with phospho-Ser^9 peptide (GST-GSK3β [2]; various concentrations of peptides, FIG. 3H-J): as efficiently as the phospho-Ser^9 peptide

Molecule: GST-GSK3β-T^43A: purified active GST-GSK3β T^43A mutant
- specific activity (GSM substrate peptide): 53 µmol/µg/min

Molecule: C[S+]([O-])c1ccc(-c2nc(-c3ccncc3)c(-c3ccc(F)cc3)[nH]2)cc1 (stereo not drawn) [SB203580]
- phosphorylation of Ser^389 [4]: abrogated
- phosphorylation of GSK3β by purified recombinant activated p38 MAPK (p38 MAPK; FIG. 2E): blocked
- phosphorylation of recombinant catalytically-inactive GSK3β by immunoprecipitated p38 MAPK (p38 MAPK; p38 MAPK from MKK6 thymocytes or MKK6-transfected 293T cells, FIG. 2C): blocked
- phosphorylation of Ser^9 of GSK3β [1]: not affected
- amount of β-catenin (β-catenin): decreased
- phosphorylation of endogenous GSK3β at Ser^389 ([5]; embryonic stem (ES) cells): inhibited
- phosphorylation of endogenous GSK3β at Ser^389 ([5]; wild-type mouse embryonic fibroblasts (MEFs)): inhibited
- levels of phospho-Ser^389 GSK3β (phospho-Ser^389 GSK3β; brain): reduced
- levels of phospho-Ser^389 GSK3β (phospho-Ser^389 GSK3β; thymocytes): reduced

Molecule: GST-GSK3β: purified active wildtype GST-GSK3β fusion protein
- specific activity (GSM substrate peptide): 91 µmol/µg/min

B1: Akt: recombinant active Akt (Cell Signaling) (protein)
chain: MNDVAIVKEGWLHKRGEYIKTWRPRYFLLKNDGTFIGYKERPQDVDQRESPLNNFSVAQCQLMKTERPRPNTFIIRCLQWTTVIERTFHVETPEEREEWATAIQTVADGLKRQEEETMDFRSGSPSDNSGAEEMEVSLAKPKHRVTMNEFEYLKLLGKGTFGKVILVKEKATGRYYAMKILKKEVIVAKDEVAHTLTENRVLQNSRHPFLTALKYSFQTHDRLCFVMEYANGGELFFHLSRERVFSEDRARFYGAEIVSALDYLHSEKNVVYRDLKLENLMLDKDGHIKITDFGLCKEGIKDGATMKTFCGTPEYLAPEVLEDNDYGRAVDWWGLGVVMYEMMCGRLPFYNQDHEKLFELILMEEIRFPRTLGPEAKSLLSGLLKKDPTQRLGGGSEDAKEIMQHRFFANIVWQDVYEKKLSPPFKPQVTSETDTRYFDEEFTAQMITITPPDQDDSMECVDSERRPHFPQFSYSASGTA
- effect on GSK3β activity (wild-type GSK3β): inhibited
- effect on GSK3β activity (GSK3β-T^43A mutant): inhibited
- effect on GSK3β activity (GSK3β-T^390A mutant): inhibited
